Article PMC3913725 (Cell, 2013)
One block for each binder: values may come before it.

Experiments:
Test in all cases: pull-down
GST-AP-1 core, wild type [1] = biological target: T1, GST-AP-1 core, wild type (murine | human, UniProt P22892 1-595; Q10567 1-584; Q96PC3 1-154; P35585 1-423)
GST-AP-1 core, wild type [2] = biological target: T1, GST-AP-1 core, wild type; remark: listed apart in the source
GST-AP-1 core, wild type [3] = biological target: T1, GST-AP-1 core, wild type; remark: listed apart in the source

T1 sequence (P22892 1-595, chain 1 of 4): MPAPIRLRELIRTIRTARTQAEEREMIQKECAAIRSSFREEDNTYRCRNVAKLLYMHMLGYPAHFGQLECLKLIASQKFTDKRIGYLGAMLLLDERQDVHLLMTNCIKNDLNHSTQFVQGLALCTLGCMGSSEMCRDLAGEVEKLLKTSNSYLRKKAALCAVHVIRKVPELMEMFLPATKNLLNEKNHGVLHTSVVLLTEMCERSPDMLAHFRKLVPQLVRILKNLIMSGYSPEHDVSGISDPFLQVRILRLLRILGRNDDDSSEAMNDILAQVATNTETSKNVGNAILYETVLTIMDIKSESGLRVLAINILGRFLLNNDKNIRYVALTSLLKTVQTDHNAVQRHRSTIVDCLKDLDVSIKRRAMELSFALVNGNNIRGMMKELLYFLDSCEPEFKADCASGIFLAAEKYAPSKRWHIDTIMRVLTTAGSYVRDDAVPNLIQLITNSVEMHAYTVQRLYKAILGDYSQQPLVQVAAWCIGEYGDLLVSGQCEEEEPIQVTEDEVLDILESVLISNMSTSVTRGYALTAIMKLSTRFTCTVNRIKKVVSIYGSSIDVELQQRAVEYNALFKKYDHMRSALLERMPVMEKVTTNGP
T1 sequence (Q10567 1-584, chain 2 of 4): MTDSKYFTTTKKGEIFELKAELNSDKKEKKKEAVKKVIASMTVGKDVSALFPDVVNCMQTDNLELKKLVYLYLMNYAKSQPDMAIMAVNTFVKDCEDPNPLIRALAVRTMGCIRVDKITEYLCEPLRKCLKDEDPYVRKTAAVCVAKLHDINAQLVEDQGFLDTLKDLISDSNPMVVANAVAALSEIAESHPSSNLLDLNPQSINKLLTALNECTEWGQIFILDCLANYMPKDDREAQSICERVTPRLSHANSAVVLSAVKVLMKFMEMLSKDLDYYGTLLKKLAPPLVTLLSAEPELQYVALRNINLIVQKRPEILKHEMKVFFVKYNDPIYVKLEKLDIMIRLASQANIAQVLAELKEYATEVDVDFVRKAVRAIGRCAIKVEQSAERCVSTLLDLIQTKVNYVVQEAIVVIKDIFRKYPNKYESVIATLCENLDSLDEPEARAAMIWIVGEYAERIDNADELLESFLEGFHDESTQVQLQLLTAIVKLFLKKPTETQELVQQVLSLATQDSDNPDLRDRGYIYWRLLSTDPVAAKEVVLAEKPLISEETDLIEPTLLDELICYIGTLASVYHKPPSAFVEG
T1 sequence (Q96PC3 whole entry, chain 3 of 4): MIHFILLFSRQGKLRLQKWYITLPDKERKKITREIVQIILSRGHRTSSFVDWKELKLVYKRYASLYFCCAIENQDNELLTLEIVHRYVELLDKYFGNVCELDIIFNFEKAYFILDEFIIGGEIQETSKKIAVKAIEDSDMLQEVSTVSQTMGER
T1 sequence (P35585 whole entry, chain 4 of 4): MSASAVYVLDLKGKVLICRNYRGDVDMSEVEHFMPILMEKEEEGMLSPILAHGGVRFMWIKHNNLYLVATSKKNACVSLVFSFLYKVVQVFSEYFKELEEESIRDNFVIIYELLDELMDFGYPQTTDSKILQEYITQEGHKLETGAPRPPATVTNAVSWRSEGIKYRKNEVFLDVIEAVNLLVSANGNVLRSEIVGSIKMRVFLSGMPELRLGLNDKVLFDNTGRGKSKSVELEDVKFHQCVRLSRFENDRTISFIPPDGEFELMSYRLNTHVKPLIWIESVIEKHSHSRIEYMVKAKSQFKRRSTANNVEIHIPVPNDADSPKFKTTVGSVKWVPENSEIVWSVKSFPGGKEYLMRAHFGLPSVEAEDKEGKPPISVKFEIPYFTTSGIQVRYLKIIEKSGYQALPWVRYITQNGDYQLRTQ

- Kd (GST-AP-1 core, wild type [1]): 20 ± 0.6 µM
- fold increase of Arf1 bound with 20 μM VAMP4 peptide, against no peptide (GST-AP-1 core, wild type [2]): 4 fold
B1: His6-Arf1^Δ1-16 Q71L, GTP-loaded (domain or fragment)
chain: not shown

- binding result (GST-AP-1 core, wild type [3]): binds
B2: His-Arf1^Δ16-Q71L W172D (domain or fragment)
chain: not shown

- binding result (GST-AP-1 core, wild type [3]): binds
B3: His-Arf1^Δ16-Q71L A136P/A137H (domain or fragment)
chain: not shown
